From article PMC3910116, “Super Spy variants implicate flexibility in chaperone action” (eLife, 2014) come the findings set out here.

What all share (settings): both partners purified
The target in experiment [1] is T1, N-terminal strep-tagged Spy (E. coli, UniProt P77754 24-161).
T1 construct: Spy, E. coli; Probably the mature protein behind the tag; not shown: Strep tag, N-terminal, kept
T1 sequence (looked up): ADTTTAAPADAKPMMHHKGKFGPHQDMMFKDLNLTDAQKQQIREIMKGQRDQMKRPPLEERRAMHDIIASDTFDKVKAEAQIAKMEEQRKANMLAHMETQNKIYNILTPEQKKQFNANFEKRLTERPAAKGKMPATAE
Put plainly: pull-down; tryptic fragments of Im7 L53A I54A mixed with N-terminal strep-tagged Spy, strep-tactin sepharose column, eluted with 2.5 mM desthiobiotin, fragments identified by LC/MS.

Experiment [2] addresses T2, Spy F115L (E. coli, UniProt P77754 24-161, F115L).
T2 construct: N-terminal serine from the Sumo fusion construct; the footnote says it of Spy purification in general; Spy, E. coli, mature protein; numbers count on: the mature protein; Variant of m1 found by genetic selection, remade by site-directed mutagenesis; also called super-Spy variant; source: purified; not shown: SUMO, N-terminal, cleaved (from the N-terminal serine said of Spy purification in general)
T2 sequence: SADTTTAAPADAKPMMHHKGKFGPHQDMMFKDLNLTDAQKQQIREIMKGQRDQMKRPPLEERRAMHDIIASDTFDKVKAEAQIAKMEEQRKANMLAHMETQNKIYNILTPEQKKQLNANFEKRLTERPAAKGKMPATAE
Put plainly: BLI; biotinylated Im7 L53A I54A immobilised on streptavidin sensors (Octet RED); Spy variants at 2, 1, 0.5, 0.25 and 0.125 µM; 25°C; 40 mM HEPES, 150 mM NaCl, pH 7.5; 1:1 binding model, KD = koff/kon; apparent. In general terms: Biolayer interferometry detects binding as a change in optical thickness at a sensor tip.

Experiment [3] concerns the target T3, Spy Q100L (E. coli, UniProt P77754 24-161, Q100L).
T3 construct: N-terminal serine from the Sumo fusion construct; the footnote says it of Spy purification in general; Spy, E. coli, mature protein; numbers count on: the mature protein; Variant of m1 found by genetic selection, remade by site-directed mutagenesis; also called super-Spy variant; source: purified; not shown: SUMO, N-terminal, cleaved (from the N-terminal serine said of Spy purification in general)
T3 sequence: T2 sequence with Q101L, L116F
The description is as above.

Experiment [4] concerns the target T4, Spy (wild type) (E. coli, UniProt P77754 24-161).
T4 construct: N-terminal serine introduced from the Sumo fusion construct used for purification; numbers count on: the mature protein; construct as in Quan et al., 2011; also called WT; wild-type Spy; source: purified from a Sumo fusion construct (Quan et al., 2011); not shown: SUMO, N-terminal, cleaved (from the N-terminal serine left on the protein)
T4 sequence: T2 sequence with L116F
The experiment is described as above.

Experiment [5] deals with T5, Spy Q25R (E. coli, UniProt P77754 24-161, Q25R).
T5 construct: N-terminal serine from the Sumo fusion construct; the footnote says it of Spy purification in general; Spy, E. coli, mature protein; numbers count on: the mature protein; Variant of m1 found by genetic selection, remade by site-directed mutagenesis; also called super-Spy variant; source: purified; not shown: SUMO, N-terminal, cleaved (from the N-terminal serine said of Spy purification in general)
T5 sequence: T2 sequence with Q26R, L116F
The experiment is described as above.

The target of experiment [6] is T6, Spy H96L (E. coli, UniProt P77754 24-161, H96L).
T6 construct: N-terminal serine from the Sumo fusion construct; the footnote says it of Spy purification in general; Spy, E. coli, mature protein; numbers count on: the mature protein; Variant of m1 found by genetic selection, remade by site-directed mutagenesis; also called super-Spy variant; source: purified; not shown: SUMO, N-terminal, cleaved (from the N-terminal serine said of Spy purification in general)
T6 sequence: T2 sequence with H97L, L116F
Described as above.

For experiment [7], the target named is T7, Spy F115I (E. coli, UniProt P77754 24-161, F115I).
T7 construct: N-terminal serine from the Sumo fusion construct; the footnote says it of Spy purification in general; Spy, E. coli, mature protein; numbers count on: the mature protein; Variant of m1 found by genetic selection, remade by site-directed mutagenesis; also called super-Spy variant; source: purified; not shown: SUMO, N-terminal, cleaved (from the N-terminal serine said of Spy purification in general)
T7 sequence: T2 sequence with L116I
The description is as above.

Experiment [8] deals with T8, Spy L32P (E. coli, UniProt P77754 24-161, L32P).
T8 construct: N-terminal serine from the Sumo fusion construct; the footnote says it of Spy purification in general; Spy, E. coli, mature protein; numbers count on: the mature protein; Variant of m1 found by genetic selection, remade by site-directed mutagenesis; also called super-Spy variant; source: purified; not shown: SUMO, N-terminal, cleaved (from the N-terminal serine said of Spy purification in general)
T8 sequence: T2 sequence with L33P, L116F
The experiment is described as above.

The target of experiment [9] is T9, Spy Q49L (E. coli, UniProt P77754 24-161, Q49L).
T9 construct: N-terminal serine from the Sumo fusion construct; the footnote says it of Spy purification in general; Spy, E. coli, mature protein; numbers count on: the mature protein; Variant of m1 found by genetic selection, remade by site-directed mutagenesis; also called super-Spy variant; source: purified; not shown: SUMO, N-terminal, cleaved (from the N-terminal serine said of Spy purification in general)
T9 sequence: T2 sequence with Q50L, L116F
The experiment is described as above.

For experiment [10], the target named is T4, Spy (wild type). Put plainly: ITC; Spy with full length Im7 L53A I54A or purified Im7 peptides; conditions and who was titrated not told. In general terms: ITC needs no label: the signal is the heat of the interaction.
Experiment [11] concerns the target T2, Spy F115L. Put plainly: HDX-MS; top-down ECD-FTICR-MS; 25 µM Spy (dimer) and 100 µM Im7 peptide (1:4), 10 mM ammonium acetate, 80% D2O, labelling time 10 s.
The target in experiment [12] is T3, Spy Q100L. Described as above.
The target of experiment [13] is T5, Spy Q25R. The experiment is described as above.
Experiment [14] concerns the target T6, Spy H96L. The description is as above.
For experiment [15], the target named is T7, Spy F115I. The description is as above.
For experiment [16], the target named is T8, Spy L32P. The experiment is described as above.
For experiment [17], the target named is T9, Spy Q49L. The description is as above.

Residue numbers refer to the chain shown, from its start. Names and notes keep the numbering of the source.

B1: Im7 L53A I54A tryptic fragment 5–73 (domain or fragment, UniProt Q03708 5-73, looked up)
chain: NSISDYTEAEFVQLLKEIEKENVAATDDVLDVLLEHFVKITEHPDGTDAAYYPSDNRDDSPEGIVKEIK
notes: immunity protein 7 (Im7), residues 5-73; source: limited proteolysis of Im7 L53A I54A with trypsin
Take B1: in experiment [1], the binding result is recorded as “binds”.

B2: Im7 L53A I54A tryptic fragment 5–70 (domain or fragment, UniProt Q03708 5-70, looked up)
chain: NSISDYTEAEFVQLLKEIEKENVAATDDVLDVLLEHFVKITEHPDGTDAAYYPSDNRDDSPEGIVK
notes: immunity protein 7 (Im7), residues 5-70; source: limited proteolysis of Im7 L53A I54A with trypsin
Consider B2, for which, in [1], the binding result was “binds”.

B3: Im7 L53A I54A tryptic fragment 5–43 (peptide, UniProt Q03708 5-43, looked up)
chain: NSISDYTEAEFVQLLKEIEKENVAATDDVLDVLLEHFVK
notes: immunity protein 7 (Im7), residues 5-43; most of the α1 and α2 helices; source: limited proteolysis of Im7 L53A I54A with trypsin
Take B3: the binding result in experiment [1] was “binds”.

B4: Im7 L53A I54A tryptic fragment 5–76 (domain or fragment, UniProt Q03708 5-76, looked up)
chain: NSISDYTEAEFVQLLKEIEKENVAATDDVLDVLLEHFVKITEHPDGTDAAYYPSDNRDDSPEGIVKEIKEWR
notes: immunity protein 7 (Im7), residues 5-76; source: limited proteolysis of Im7 L53A I54A with trypsin
B4: the binding result in experiment [1] is recorded as “binds”.

B5: Biotinylated Im7 L53A I54A (natural protein)
chain: SMELKNSISDYTEAEFVQLLKEIEKENVAATDDVLDVLLEHFVKITEHPDGTDAAYYPSDNRDDSPEGIVKEIKEWRAANGKPGFKQG
modifications: biotin (EZ-link NHS-biotin at 1:1 molar ratio; site not stated)
notes: N-terminal serine from the Sumo fusion construct; the footnote says it of Im7 purification in general; immunity protein 7 (Im7), colicin E7 immunity protein; Same protein as m10 with biotin; held on streptavidin sensors; also called biotin-conjugated Im7 L53A I54A; immunity protein 7 L53A I54A; source: purified from a Sumo fusion construct (Quan et al., 2011), biotinylated with EZ-link …
For orientation: koff means a measure of how fast the partners let go of each other. For B5, the Kd with Spy F115L [2] was 900 nM; with Spy Q100L [3] it was 230 nM; in the experiment with Spy (wild type) [4], 1150 nM; in the experiment with Spy Q25R [5] it was 870 nM; with Spy H96L [6] it was 1000 nM; with Spy F115I [7] it was 1170 nM. Moreover, the Kd in the experiment with Spy L32P [8] came out at 200 nM; in the experiment with Spy Q49L [9], 760 nM. Also, the koff with Spy F115L [2] worked out at 0.245 s⁻¹; in the experiment with Spy Q100L [3] it was 0.027 s⁻¹; with Spy (wild type) [4] it was 0.456 s⁻¹; in the experiment with Spy Q25R [5], 0.198 s⁻¹; in the experiment with Spy H96L [6], 0.266 s⁻¹; with Spy F115I [7] it was 0.328 s⁻¹. Also, the koff with Spy L32P [8] stood at 0.03 s⁻¹; in the experiment with Spy Q49L [9], 0.176 s⁻¹.

B6: Im7 3-45 peptide (peptide)
chain: SLKNSISDYTEAEFVQLLKEIEKENVAATDDVLDVLLEHFVKIT
notes: N-terminal serine from the Sumo fusion construct; the footnote says it of Im7 purification in general; immunity protein 7 (Im7), residues 3-45; source: expressed in vivo, purified; not shown: SUMO, N-terminal, cleaved (from the N-terminal serine said of Im7 purification in general)
B6: the Kd with Spy (wild type) [10] turned out to be 2300 nM.

B7: Im7 L53A I54A (natural protein)
chain: B5 chain
notes: N-terminal serine from the Sumo fusion construct; the footnote says it of Im7 purification in general; immunity protein 7 (Im7), colicin E7 immunity protein; also called full length Im7 L53A I54A; immunity protein 7 L53A I54A; source: purified from a Sumo fusion construct (Quan et al., 2011); not shown: SUMO, N-terminal, cleaved (from the N-terminal serine said of Im7 purification in general)
B7: the Kd with Spy (wild type) [10] turned out to be 2500 nM.

B8: Im7 12-45 peptide (peptide)
chain: SEAEFVQLLKEIEKENVAATDDVLDVLLEHFVKIT
notes: N-terminal serine from the Sumo fusion construct; the footnote says it of Im7 purification in general; immunity protein 7 (Im7), residues 12-45; source: expressed in vivo, purified; not shown: SUMO, N-terminal, cleaved (from the N-terminal serine said of Im7 purification in general)
As to B8, the Kd with Spy (wild type) [10] worked out at 8000 nM.

B9: Im7 7-45 peptide (peptide)
chain: SISDYTEAEFVQLLKEIEKENVAATDDVLDVLLEHFVKIT
notes: N-terminal serine introduced from the Sumo fusion construct; immunity protein 7 (Im7), residues 7-45; Called a 40-amino acid peptide: 39 residues of Im7 and the N-terminal serine; An equimolar mixture of unlabelled and 15N-labelled peptide was used for PICUP and EDC; also called Im7 L53A I54A 7-45 peptide; source: expressed in vivo as a Sumo fusion construct, purified; not shown: SUMO, …
With B9, the binding result in the experiment with Spy F115L [11], with Spy Q100L [12], with Spy Q25R [13], in the experiment with Spy H96L [14], with Spy F115I [15] and with Spy L32P [16] was “binds” throughout. Moreover, in the experiment with Spy Q49L [17], the binding result is reported as “binds”. Moreover, the Kd in the experiment with Spy (wild type) [10] came out at 2600 nM.
